This is an account of results in the supplement of paper PMC12764529.

The nature of data set [1]: folding stability dG unfold from trypsin proteolysis; higher = more stable. The gist of the method: (§1)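 Only designs with AlphaFold2 dimer inter-PAE above 15 were retained; each was a mini-protein under 80 residues with no cysteine, in a PA-tagged cDNA display construct. After digestion with trypsin and chymotrypsin and sequencing, K50 was inferred by Bayesian fitting of counts, and unfolding free energy was derived per protease or combined against a sequence-predicted unfolded-state K50 and a shared folded-state K50.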

A short description of data set [2]: folding stability dG unfold (combined trypsin and chymotrypsin); higher = more stable. The gist of the method:
as §1

Data set [3] can be described thus: folding stability dG unfold from chymotrypsin proteolysis; higher = more stable. Summed up:
as §1

± gives the half width of the 95% confidence interval.

Take “SAGGSAMEIEVEKNEDGTVTIRFRDKETGEEIEIEIEVEPGMTEEEVREKAEELAEELKKKGIEIESAGGSA [r15_1022_TrROS_Hall]”: the “folding stability dG unfold” value was found to be 2.82 ± 0.19 kcal/mol in data set [1], 2.89 ± 0.23 kcal/mol in data set [2] and 2.73 ± 0.19 kcal/mol in data set [3].
For “SAGGSAMETIELKLEDGSTLTIERDPENPNTLTITFEDGRKITVTADSAEEALKKALELAKEGKLPSAGGSA [r15_38_TrROS_Hall]” the same measures were 4.36 ± 0.33 kcal/mol, 4.6 ± 0.17 kcal/mol and 4.58 ± 0.16 kcal/mol.
The corresponding values for “SAGGSAMIEEKLIEIPPIPVPYPDGSVQKVPVLVEETVELKPFIDPNTDKTSTAKTVTKRKVIFPSSAGGSA [r15_884_JUSTAS]” are -0.255 ± 0.21 kcal/mol, 0.379 ± 0.15 kcal/mol and 0.76 ± 0.084 kcal/mol.
As for “SAGGSAMIELEIKLPKEEAEKIAEELAKKLAEELGLEVKVVDVEIEYDPETDEVTIRVKIEVEPEPSAGGSA [r15_70_TrROS_Hall]”, the “folding stability dG unfold” value in data set [1] stood at 2.68 ± 0.15 kcal/mol; in data set [2] it was 2.48 ± 0.24 kcal/mol; in data set [3], 1.98 ± 0.1 kcal/mol.
For “SAGGSAMIITFDKKTGKLTIYNKETGKKIEAEITKIEKIPEDKKYVKIKIKNKKTKKEFEFIFKIKSAGGSA [r15_209_TrROS_Hall]” the same measures were 2.57 ± 0.16 kcal/mol, 3.81 ± 0.38 kcal/mol and 4.39 ± 0.1 kcal/mol.
Consider “SAGGSAMIVTEDPNGVLTTTENGKVTTTTVTPVPRPDPFSDKTFTEYVVTTTTTPVAPSPITPNTLSAGGSA [r15_515_JUSTAS]”, for which the “folding stability dG unfold” value in data set [1] is 1.26 ± 0.032 kcal/mol; in data set [2] it was 0.823 ± 0.046 kcal/mol; in data set [3], -0.0422 ± 0.081 kcal/mol.
In the case of “SAGGSAMKEIEINGYKVRIVKIDEKTGKITIYLYPNASEEMKEKVAELLKELGFEIEVEEVSPEELSAGGSA [r15_570_TrROS_Hall]”, the “folding stability dG unfold” value in data set [1] is 3.4 ± 0.28 kcal/mol; in data set [2], 3.44 ± 0.16 kcal/mol; in data set [3], 3.53 ± 0.14 kcal/mol.
In the case of “SAGGSAMKIKPGETVTIKVKNKETGEWFEAKIVKVDEEKGEIEIEVEVNGKKYTFTIPAEDIEIVESAGGSA [r15_381_TrROS_Hall]”, the figures for the “folding stability dG unfold” value in data set [1], in data set [2] and in data set [3] were 1.87 ± 0.33 kcal/mol, 2.89 ± 0.29 kcal/mol and 3.12 ± 0.077 kcal/mol, respectively.
The corresponding values for “SAGGSAMKIKRDNGKVRIEIDFPPEMKNPERMLMNIRSAINENPNKPIKVTMPPGHREWAKRLLKESAGGSA [r15_89_TrROS]” are 0.219 ± 0.19 kcal/mol, -0.248 ± 0.24 kcal/mol and -0.686 ± 0.44 kcal/mol.
As for “SAGGSAMKITITVEKKEDGTYRVTIEIDGKKIEIEMSVEDLKKKLEELAKELFPDKPIKVEVKPVPSAGGSA [r15_925_TrROS_Hall]”, the “folding stability dG unfold” value was 2.87 ± 0.13 kcal/mol in data set [1], 3.83 ± 0.2 kcal/mol in data set [2] and 4.13 ± 0.36 kcal/mol in data set [3].
For “SAGGSAMKITLKPDGTLEIELPDGVKITITRNANGEVTITITYPDGETKTFPAGMTLEQVLAELLASAGGSA [r15_371_TrROS_Hall]” the same measures were 3.56 ± 0.072 kcal/mol, 3.42 ± 0.051 kcal/mol and 3.3 ± 0.053 kcal/mol.
For “SAGGSAMKKIPKENVEKVIEFTDKNGKKITIVYNKKTGKAYIFDKKTKKVIEIDMTEDEIKKLLKSSAGGSA [r15_810_TrROS_Hall]”, the “folding stability dG unfold” value in data set [1] is 1.1 ± 0.023 kcal/mol; in data set [2], 1.89 ± 0.054 kcal/mol; in data set [3], 2.13 ± 0.061 kcal/mol.
The corresponding values for “SAGGSAMKKLTIELPDPDITPEEAEKRAREIAEKIAEGNYKVEEIKVEPVDPEKNVYRGTVIIKELSAGGSA [r15_96_JUSTAS]” are 0.64 ± 0.13 kcal/mol, 0.507 ± 0.34 kcal/mol and 0.365 ± 0.27 kcal/mol.
On to “SAGGSAMKLPKNVKITITKNKDGTVTITITYPDGKKITITMKIDKNGKLKFTKEQIKKLIKELAKKSAGGSA [r15_780_TrROS_Hall]”, for which the “folding stability dG unfold” value in data set [1] was 2.74 ± 0.089 kcal/mol; in data set [2], 2.53 ± 0.22 kcal/mol; in data set [3], 2.52 ± 0.082 kcal/mol.
The corresponding values for “SAGGSAMKLTLKDKKGNTLFLEVEEKTSEDGTPYYEVKIYYPNTNKVEYAEVPVENLEEFAKKLADSAGGSA [r15_92_TrMRF]” are 3.21 ± 0.09 kcal/mol, 3.25 ± 0.18 kcal/mol and 3.31 ± 0.086 kcal/mol.
The corresponding values for “SAGGSAMKVDPSTKVVTVTDPKTGKEYRVNLPDVPPEKGVEVKVDNGKVTVKTEEGVRVIPYSELKSAGGSA [r15_864_JUSTAS]” are 0.609 ± 0.044 kcal/mol, 0.71 ± 0.097 kcal/mol and 0.538 ± 0.12 kcal/mol.
In the case of “SAGGSAMKVRLEVEEEDGKLRVRLEVEVGPPVVRVEVEAEVEEVDGELVLKVTVKVELSPEALEALSAGGSA [r15_725_TrROS_Hall]”, the “folding stability dG unfold” value turned out to be 3.47 ± 0.22 kcal/mol in data set [1], 3.78 ± 0.15 kcal/mol in data set [2] and 3.78 ± 0.11 kcal/mol in data set [3].
Regarding “SAGGSAMKVYKIKLEFENEETGKRVEIEAEVVEVDGELYLVMKAKVVDEETGEEKEIEIVIKLPKESAGGSA [r15_960_TrROS_Hall]”, the “folding stability dG unfold” value in data set [1] amounted to 2.48 ± 0.21 kcal/mol; in data set [2], 2.31 ± 0.21 kcal/mol; in data set [3], 2.27 ± 0.4 kcal/mol.
The corresponding values for “SAGGSAMLKVTERTVEVEVFDEEGNPIGWRERKIVVEDPLSPEPRPPPPPVDPVLAAETLGADVLESAGGSA [r15_572_JUSTAS]” are -0.0577 ± 0.14 kcal/mol, 0.393 ± 0.14 kcal/mol and 0.543 ± 0.21 kcal/mol.
With “SAGGSAMLTLLYRVPPGDPLAHAREIAEALEERFGAKVRILDVKVERDPVTREVYIPVVVELELPESAGGSA [r15_70_TrMRF]”, the “folding stability dG unfold” value came out at 0.856 ± 0.074 kcal/mol in data set [1], 1.14 ± 0.17 kcal/mol in data set [2] and 1.3 ± 0.16 kcal/mol in data set [3].
The corresponding values for “SAGGSAMLVFKITIKNPETNETIELEIEAETLEEAKEAIEKLIAELTGKEPTEIKIEVVEIKEEDLSAGGSA [r15_670_TrROS_Hall]” are 4.09 ± 0.35 kcal/mol, 4.42 ± 0.27 kcal/mol and 4.47 ± 0.3 kcal/mol.
“SAGGSAMLVIEIEVDGKKVTLVIEVPPEMTEEEIRELAEELAERLRALPGVKEVKVKIERVPPPPESAGGSA [r15_246_TrROS_Hall]”: the results for the “folding stability dG unfold” value in data set [1], in data set [2] and in data set [3] were 4.06 ± 0.22 kcal/mol, 3.85 ± 0.26 kcal/mol and 3.56 ± 0.18 kcal/mol, respectively.
For “SAGGSAMLVKVTITLKKGGKEYTLEQFVEVNPPDLKIEIPPEIKEKGWEIVDIEVEEITPEEAERKSAGGSA [r15_853_JUSTAS]” the same measures were 1.24 ± 0.091 kcal/mol, 2.8 ± 0.28 kcal/mol and 3.19 ± 0.039 kcal/mol.
In the case of “SAGGSAMLVVADDPEVVRELVEPLFPDGEPVLVVGATEEEAAKLVEELKKKGLPFKVVVVRRPDRPSAGGSA [r15_567_TrMRF]”, the “folding stability dG unfold” value in data set [1] was 0.932 ± 0.048 kcal/mol; in data set [2], 0.657 ± 0.14 kcal/mol; in data set [3], -0.039 ± 0.23 kcal/mol.
For “SAGGSAMMLAKVKIELPNGEIVEIPIEFESLEELEEKIKEKARELFPDIPIEDIKILDIELYSLEESAGGSA [r15_220_TrMRF]” the same measures were 4.06 ± 0.27 kcal/mol, 5.31 ± 0.34 kcal/mol and 5.32 ± 0.13 kcal/mol.
Take “SAGGSAMMTLEEAIEKAAKNIPVGEKKIIEIKLEKGTFTVEIEKIGPKEVKIKILKISKGPEEEEISAGGSA [r15_150_TrMRF]”: the “folding stability dG unfold” value was 3.99 ± 0.23 kcal/mol in data set [1], 4.61 ± 0.3 kcal/mol in data set [2] and 4.68 ± 0.18 kcal/mol in data set [3].
In the case of “SAGGSAMPEDTPFVVTKTTEYRLPDGSRVTFEPVPETGKTLVTFTPPDGSSERVWLTPEEAEKLLASAGGSA [r15_2_JUSTAS]”, the results for the “folding stability dG unfold” value in data set [1], in data set [2] and in data set [3] were 1.11 ± 0.02 kcal/mol, 1.22 ± 0.11 kcal/mol and 1.3 ± 0.1 kcal/mol, respectively.
For “SAGGSAMPLLIVDKNNNVTLISASSPEELEELLKKYNIKKIEPFPFPDGKALVFIAEYPDGIIYSGSAGGSA [r15_632_TrMRF]”, the “folding stability dG unfold” value in data set [1] is 1.3 ± 0.02 kcal/mol; in data set [2] it was 1.52 ± 0.049 kcal/mol; in data set [3] it was 1.65 ± 0.047 kcal/mol.
In the case of “SAGGSAMPVVELPIGPELYEKIKEAAEAGDPDKVITLPLKLPNGEEVTLVVEADPATPEFRARVELSAGGSA [r15_700_TrMRF]”, the “folding stability dG unfold” value was -0.683 ± 0.1 kcal/mol in data set [1], 0.105 ± 0.096 kcal/mol in data set [2] and 0.397 ± 0.085 kcal/mol in data set [3].
In the case of “SAGGSAMQQLDITKTKWDPNTGTLSVTAKDPLTGEVTTYTIPRNGPTLNFPPGAELKSVETEPPPLSAGGSA [r15_959_JUSTAS]”, the “folding stability dG unfold” value in data set [1] was 0.0912 ± 0.28 kcal/mol; in data set [2], -0.0792 ± 0.27 kcal/mol; in data set [3], -0.368 ± 0.37 kcal/mol.
For “SAGGSAMSITISDISSVKNLTITETTPDGTPVTVTVNATTGSGPPTLTFTATTPGTGATTTTTTAFSAGGSA [r15_1006_JUSTAS]”, the entries for the “folding stability dG unfold” value in data set [1], in data set [2] and in data set [3] were 0.693 ± 0.014 kcal/mol, 0.38 ± 0.051 kcal/mol and -0.299 ± 0.099 kcal/mol, respectively.
For “SAGGSAMSLEELKGHLVRLTLPDGRVVVAPVKEMDEEAPVLVIEFGGKPILIPKDAPVKLEVLPPGSAGGSA [r15_355_TrMRF]”, the “folding stability dG unfold” value is 0.962 ± 0.039 kcal/mol in data set [1], 0.759 ± 0.062 kcal/mol in data set [2] and 0.581 ± 0.052 kcal/mol in data set [3].
Regarding “SAGGSAMSPEEVEEKIKEIAKKLGVEIEVKVEISPEGGIKITVKVNDKFDINEIKKGIEEALGIKLSAGGSA [r15_807_JUSTAS]”, the “folding stability dG unfold” value in data set [1] came to 4.4 ± 0.55 kcal/mol; in data set [2], 3.94 ± 0.45 kcal/mol; in data set [3], 2.65 ± 0.16 kcal/mol.
“SAGGSAMSVTLTFEEPVGPGVPVKVTVTVERFPDSVKVTVTTTFPDGTVTTTPVSLKLEPAAVDLLSAGGSA [r15_263_JUSTAS]”: the “folding stability dG unfold” value in data set [1] was found to be 2.44 ± 0.11 kcal/mol; in data set [2], 2.54 ± 0.082 kcal/mol; in data set [3], 2.694 ± 0.022 kcal/mol.
On to “SAGGSAMTAEEVEEKVREAFAALGVEAEVEVRESPEGGLEVLVVTGEDADLEEVKAALEELFGTDISAGGSA [r15_807_TrMRF]”, for which the entries for the “folding stability dG unfold” value in data set [1], in data set [2] and in data set [3] were 2.51 ± 0.12 kcal/mol, 2.48 ± 0.078 kcal/mol and 2.5 ± 0.064 kcal/mol, respectively.
